Assay: soluble on expression in E. coli; label from the status in PepcDB or PDB records

Sequence | soluble on expression in E. coli
MSEKQSNEQVEAFLNKESQWQEEYKYLRALIFNETELEEAYKWMHPCYTLNNKNVVLIHGFKNYVALLFHKGAILEDKYHTLIQQTEKVQAARQLRFENLTEIQARTEEIKYYLAEAIKAEKAGKKVEMKKTEEYVIPKELEAKFEEMPQLESSFYKLTPGRQHQYIYHIGQAKRSETKQKRVEKYINQILEGKGMHDK | not soluble
GPGSMPQSAVMNVMVQAAMKAGRSLVRDYGEVQNLQVSLKGPADYVSQADRKAEKIIFNELSKARPKFGFLMEESEEIIGEDSQHRFIVDPLDGTTNFLHGIPFFAVSIALESQGKIVAGVIYNPINDELFTAERGSGAFFNDRRCRVSARRRLEDCVIATGMPHLGRPGHGTYLIELRNVMAEVSGIRRFGTAALDLAYVAAGRTDGFWEDNLQIWDMAAGILMVREAGGFVTDKEGGNDIFRKKNIIAGNEHIRIKLERALKKGI | soluble
MSMGKQGVKTAVPKLRFPEFRHSEAWELKKLSCFLVEQKKRNKNLSFGPQEVLSVSGEHGCVNQIELLGRSYAGVSLANYHVVETGDIVYTKSPLKRNPFGIIKENKGKPGVVSTLYAVYRTTVFGNPAFLDHYFSGDYNLNSYLQPIVRKGAKNDMKVSNAAVLAGEVFAPEVEEQKKIADFLTSLDDLISVQVLKVEALKVHKRGLMQELFPREGEASPRLRFPEFSNASGWTLGKASDIIDVLQGYGFPERLQGGREGNFPFYKVSDISACVDAGGILLDKANNHIDADVLEELRAKLMPIGSTVFAKIGEAIRSNKRAITSRPCLVDNNVAGVKAITGLAHDRFVYYMWCQIPLIEYAGGVVPAVKKSLMEQIPVCYPKFDEQQRIADFLSSLDAKIAAEFDQLAALRTHKKGLMQQLFPLSEVGLLEHHHHHH | soluble
MGSDKIHHHHHHMEKFIESVANFIDEEDVKVLKAIGSDPIVLHSIKKIFDYPEKANKYLILLRDSPVAVYLVAKISERLSRYLEGEDEAKCFAVFLTALRELRECGDRRVLQNMFLLLKEAIERRLSDGKYEDAAKLVMEFQDFGFKSYVKKVLFFALEVSEEGDYRRAMRILELLPETDAVIDAKASVLLEWGRSLAMSNPEAGMKKIEESLRLKDTVEARLAMAEIHESMGNYEKAYFIYTSLRSLYPGIDRRIARMLMEWGEEIGDVEKLREAYNLAMGDRLLAEEIERRIKKLEAQRLSGS | not soluble
MGSDKIHHHHHHVTDHGFSFCAHAEQYAIIGSLSQLETSDNRDCDIRRPALNRCMAEKGTLRPEAAQIFQRLEALGLKQRELAQALGIEENKISKVRAGERQFKGAELLAAYEWLDQREAEAHMPRLSRVAAVGQQVIPATPVEGEVVQIQKLDLSLSMGPGTLIDGYVESELVSFDLGFVRLFTRAASDHLRLVTGIGDSMEPTLKWGDLILIDTTDRMLSKQDGIYWINLYGAAGIKRLRAIGPRTILVKSDNPGVDDQEVEAEDLRIEGRAIWATRGL | not soluble
MAMTKLDATLAMLKELTDARGIAGNEREPREVMKKYIEPFADELSTDNLGSLVAKKVGEENGPKIMVAGHLDEVGFMITQIDDKGFLRFQTVGGWWSQVMLAQRVTIVTRKGDVTGVIGSKPPHILPPEARKKPVEIKDMFIDIGASSQEEAMEWGVRPGDQVVPYFEFQVMKNEKMLLAKAWDNRIGCAIAIDVLKQLKDEKHPNVVYGVGTVQEEVGLRGAKTSANYIKPDIAFAVDVGIAGDTPGVTSKEAQSKMGDGPQIILYDASVIGHTGLRDFVVDVADELQIPYQYDSVAGGGTDAGAIHIAVNGIPSMAITIATRYIHSHAAMLHRDDYENAVKLIVEVIKRLDKEAVHNITFN | not soluble
AHHHHHHGSPITKVTRNYQITIPAEIRKALGIKEGELLEVRLENGKIIIERLKKERKTLKLGKKLTLEEIEKAIEEGMKQCMQMHAVIDTNVLIYDTFSDSEFHKESRSLLNSLDRWYIPSIVLQEYVWFFRSQGFSSREAKIMLSEYISDPRFRGLVEDHNVILRAIDILERENLSLSRFNDMIILVHAIEKGTLATFDQKLRKLARKLSVEILP | soluble
MENLTVTGLVRLIGAGATMIYVVTDNERRTEQIATQAAARLKGAGSPYVWTCTEGFSRDGAVVEGIDDPVAAVGFALAQPGPLLFLFKDLPWFWGDNPYLIRALKDFAMRAKAKAIVVLGQQEGIPAALREEFVILQQGLPAMEEIKAFFEQARARDPQLAQACQERPGLLNDLVVAAQGLDLLDVERGMRGARAAGEAGGEGLVRSIFETKRAIIRTGGIMEFVANDVTPDQVGGMENLKQWMARREQAFGLEGISSGANLPKGVLMMGIAGCGKSLFVKAIAATWRLPLIRLDMAAVYDGSYGTPESSLRKAFRTAEAVAPCVLWIDEIEAGISTQGFKAEGGPASRILGSFLTWMQEKRAPVFVAATANAIEMLPAEIIRKGRFDEIFYIGLPETKGREEIFRIHLTRRKIGLSAFDVPLLAGSTKGFSGAEIEQAVQAAAFEALTGKRPMTQQDLMAAISRTVPLSVTMAEQIKKIEAWAFKRAVPA | soluble
AHHHHHHGSILDVRGLKPPQPTLMILENLGKLKIGETLEVLGDKPFVDIIPKLEEAGYQVELNKVGEFFVLKVTKTEGSKELKMEVEECDEELKEITEDTNVAKLLKAYPESLDILVKYGFSPLQNPVLRKTLARTVTLKQAKKLIGMSDERFEEMMKELKKLEKR | soluble
MGSDKIHHHHHHMAATNYSQTIKNDTKDFITTAILQLLGIQKTFEKPKNLAQLTVSNVCKRAGVSRMAFYRNFESIDQVIYQYYQPQISQSFEIIRQNVSASSKIENQLKFFEEFKDDLFLSESQGYEPIIRQIYIEEIEKFYEKTNDEYFITFVANGVYALWRKWLMNGQDKSIEEIHELIRKIVTI | not soluble
MKELIRKLTEAFGPSGREEEVRSIILEELEGHIDGHRIDGLGNLIVWKGSGEKKVILDAHIDEIGVVVTNVDDKGFLTIEPVGGVSPYMLLGKRIRFENGTIGVVGMEGETTEERQENVRKLSFDKLFIDIGANSREEAQKMCPIGSFGVYDSGFVEVSGKYVSKAMDDRIGCAVIVEVFKRIKPAVTLYGVFSVQEEVGLVGASVAGYGVPADEAIAIDVTDSADTPKAIKRHAMRLSGGPALKVKDRASISSKRILENLIEIAEKFDIKYQMEVLTFGGTNAMGYQRTREGIPSATVSIPTRYVHSPSEMIAPDDVEATVDLLIRYLGA | not soluble
MAHHHHHHMCLDWKYNYMKTRLKVLENNEKDEEIERKLQNNLNIKSLGYVLKAIEILKRKEKMKRYSTFDRHLSYFKKNNINKPQYNEKKILEHRLWAIGCELIEVIGDGNCLFRSISRNLFHKQKYHMYVRKKCVEYMINYKEEYSIYFENNEFQQYIKNMSKNGYWGDELCIKATADAFDCIIYIITSTLENWHLKYESKNNNGMYKKCVFLAYSSPTHYDCFKLMQR | not soluble
MADRPQLSIIIPVFNEAKILQKSPTENTRQYLGQFTEDQRIEILIIDGGSQDSTVELCQTYADSLPLHVFISPQTGRANQMNYGASLSRSEWLLFLHLDSILPHDFFTQIAEILTNSSYIAGAFGLTIDLPGRPYRWLEKLILWRSIYAQKPYGDQGLFIQRQDFQQLGGFADLPIMEDYQFMQKLGKQRGKVAIAGGKVITSGRRWQKLGLLRTTAINQLVVAGYHLGVSPQTLVHWYRGAKPNRGNRPNSDGTSCLEHHHHHH | soluble
MGLLKALLGFDRRDIETLARSNEENRRRIEALEAALARLEERISSISQALGRDARSTESLQGVEKEGGRETEYEGHNGTVEEGMLEDEGIIISHLEKGDATPSELIRDTGLSKNRVYGVLKRLVERGIVEKRRDGRRVVYSLRRVEAQADAPG | not soluble
MGRVFKKKGGAKREAEEEKQEELVMRKKLRKEEEPEPVEDVEEDEDVSDEDDEDIDDEEEDEDEQNIMDFDFEAYPPSEDDRDGIVNMLTQTFLRTDIDLKAMSEGIIAKAPHGVVLTQAYDDEETEEDYMAYGLCTTVPLNDNKDDAPKFIKDLFTYVLNRAKKGAPTEIYKKIEEIQVSGDGKSALFVNERLLNFPTIVVPQIFGSIREDLSGFETKYKTIIYIQKLRIVETDGSEAKVGASSNGSSGVAGKKKGKMGKAEKKRAAAAALANAEIEFDNPEDRVLFEIKEGKEIHFDYPVHMDVEPGSKFHSTEKDGKKWNPFRRLVIMDDKRFDAFLKKGSDGIII | not soluble
MSLGRMFGTDGVRGIANKELTAELAYRLGRAGAYVLTNETHKPKILVGMDTRISGDMLEAALVSGILSVGAEAVCVGIVPTPAVAYLTRKYKADAGVVISASHNPVEYNGIKFFDAKGYKLSDNLEDEIQKIIESDFEGVPLPTGESVGRKVVEESAEEDYIKFAKSTIGTDLKGMKIALDCANGAAYKTAVKTFRELGAQVTVINNDPDGININCNCGSTHPEELMDYVVKKNCDLGLAFDGDADRCLAVDEKGNLIDGDFIMAICGKYLKDKGELHKDVVVVTVMSNMGLFLALDKANIKTVKTKVGDRYVLEEMLKEGYKLGGEQSGHIIFLDYNTTGDGLVTALKICSIVKESRKTLSKLASIMHKLPQVLANAKVPNNKKDIYLEDKEISDEIKKIEEELHGKGRVLIRPSGTEPLVRVMLEGEDQDRLNTLAHGLAELIEKKANEGHHHHHH | soluble
MSLSIASADRWSDPMPTTATTFEEFRQRVDYSLLQALKPDPEATSDGNDHRPRPVFSGHWVPVRPTPIPEPKYVAHSFILFAELGISDDLAHNSDFTRLFSGDASVAAEPMHSWGWATGYALSIYGTEYIQQCPFGTGNGYGDGRAMSIVEGVFEGQRWEMQLKGGGPTPYCRGADGRAVLRSSVREFLAQEFMHALGVPTSRSLTLYRSEAETVRRPWYSDHSRSFDPDVMVDNQAAISTRVAPSFLRVGQIELFARRARDNAHPNAHDELRLIVQHLIDRNYRAEIDATLPFHQQVLELARLFRGRLTALVANWMRVGYCQGNFNSDNCAAGGYTLDYGPFGFCELFDPRFQPWTGGGAHFSFFNQPAAAEANYRMFWRSLRTLLEGDDAAQRELDQLNEGFAVAMQQQLEAMWASKLALPAYDETLVTELLQLLVAAKADYTKAFRLLSTIPDHVAELHPSFYLPSSEDLDQRWQTWLQRWRERITANGDLEETSAAMRRVNPAITWREWLIAPAYQQAEQGDNSLVLELQTLFSSPYSAPSTELAARYDQLRPQQFFSAGGIAHYSCSSEGHHHHHH | not soluble
MGSDKIHHHHHHTEDTFWKDETDFNLALTSCYTPLKNALNGGYYGTRGVMLRIARADEVDFRNDISDVYTVNRFTNSNTNSLTQGMFYQFYNALYRTNSIMQKLEEKKEQFSTDFQNSVKGECLFIRGFYLFQLAKEFKDAPLRLTASQSPSTFPLAKSSQADIWAQAKEDLKTAASLLPITNKIGKPTQGAAYAALGKIYVYEENWQEAINVLEPLTQNPYTYKLVEDFNWNFDDTHENNAESIFELLIEDVGGTDLWGDGENINSTQSNTRPKEYAAAEVGGWYEANPTQQIMDIFWKEKDKDGNFDYRARCSVAWDYEGCTYYQRPFREVFAQDKWKTYWILKYQNWKTQKDEPAPPKSFINERAIRYADVLLMLAEAYMNKGALDTSIGYINQIRRRANLNDYSGPITKEGVFEDLVHQRAIEFFVEGERFYDLRRWGLLEQTLKTCDDTRYKNYQTGKSDNINKFNYFPIPAKELDTNPLCTPSEGW | not soluble
FCYSFCKNYANEIKKIITDFIEHNKINFQNEIENAFITSVIIVHTGIDAFSISLLI | not soluble
MLEFHNVPLKTILRRAIMSLPTNFNDILRFFEKDYDTAKEDNALSARGQFLQLYPLNHLKKMTLDDYVIGKGTASFCACVEVKTRTWANMQGATALKFGIYYGKSKSDPTVRYRFTQKFGDDDSTNKEVFANVKDALLDLIQSGKELDFRAIDENPLSQMFKAKILSLYFPEHFINICSKDHLKEIAMEMGIKEQQFISKYQHLLFKKKLEHKITRNWSNPKYMSFLYAQFIRKDLSSAPAVIVKKPQKRNHPEVNFEEITDNRDLIGKKSEEYALNWEKNRLIGLGYSKLAEEIDDRRNRPTYGYDFLSFNAPGDERYIEVKSIGRDGKEGAFRFFLSGNELTVSNLSNHSKNYYFYLVQYGKDGEPCNLYVKHAQDLYTNSEMSPCAYVVRFDLEEPALEHHHHHH | soluble

— the DeepSol protein solubility set
